Results published in US20220251219A1 (published 2022).
Positions count from the first letter of the chain named.

B1: anti-Sortilin antibody S-15 (antibody, V domains shown)
VH: QVQLVQSGAEVKKPGASVKVSCKASGYTFTSYYMSWVRQAPGQGLEWMGIINPSGGSTSYAQKFQGRVTMTRDTSTSTVYMELSSLRSEDTAVYYCARDPSGIAAAGPASRYYYGMDVWGQGTTVTVSS
VL: EIVMTQSPATLSVSPGERATLSCRASQSVSSNLAWYQQKPGQAPRLLIYGASTRATGIPARFSGSGSGTEFTLTISSLQSEDFAVYYCQQARLGPWTFGGGTKVEIK
B2: anti-Sortilin antibody S-61 (antibody, V domains shown)
VH: QVQLQESGPGLVKPSETLSLTCAVSGYSISSGYYWGWIRQPPGKGLEWIGSIYHSGSTYYNPSLKSRVTISVDTSKNQFSLKLSSVTAADTAVYYCARGSPRFYYGSGSYLDLFDIWGQGTMVTVSS
VL: B1 VL with Q90E, A91Y, R92L, L93N, G94Y, W96I
B3: anti-Sortilin antibody S-6 (antibody, V domains shown)
VH: not shown
VL: B1 VL with A91V, R92A, L93N, G94Y, W96R
B4: anti-Sortilin antibody S-14 (antibody, V domains shown)
VH: B1 VH
VL: DIQMTQSPSSLSASVGDRVTITCRASQSISSYLNWYQQKPGKAPKLLIYGASSLQSGVPSRFSGSGSGTDFTLTISSLQPEDFATYYCQQHYVGPFTFGGGTKVEIK
B5: anti-Sortilin antibody S-55 (antibody, V domains shown)
VH: QVQLQESGPGLVKPSETLSLTCAVSGYSISSGYYWGWIRQPPGKGLEWIGSIYHSGSTYYNPSLKSRVTISVDTSKNQFSLKLSSVTAADTAVYYCARGRPELGWDKYFQHWGQGTLVTVSS
VL: DIQMTQSPSSVSASVGDRVTITCRASQGISRWLAWYQQKPGKAPKLLIYAASSLQSGVPSRFSGSGSGTDFTLTISSLQPEDFATYYCQQANALPTFGGGTKVEIK
B6: anti-Sortilin antibody S-18 (antibody, V domains shown)
VH: QVQLVQSGAEVKKPGSSVKVSCKASGGTFSSYAISWVRQAPGQGLEWMGSIIPIFGTANYAQKFQGRVTITADESTSTAYMELSSLRSEDTAVYYCARDKHGRRGYYYYMDVWGKGTTVTVSS
VL: EIVLTQSPATLSLSPGERATLSCRASQSVSSYLAWYQQKPGQAPRLLIYDASNRATGIPARFSGSGSGTDFTLTISSLEPEDFAVYYCQQGANAPPRTFGGGTKVEIK
B7: anti-Sortilin antibody S-2 (antibody, V domains shown)
VH: not shown
VL: B4 VL with G50A, H91S, Y92D, G94S, F96I
B8: anti-Sortilin antibody S-19 (antibody, V domains shown)
VH: QVQLVQSGAEVKKPGSSVKVSCKASGGTFSSYAISWVRQAPGQGLEWMGGIIPIFGTASYAQKFQGRVTITADESTSTAYMELSSLRSEDTAVYYCARESRIPGSGYYYYYGMDVWGQGTTVTVSS
VL: B4 VL with G50S, H91T, Y92D, V93G, G94K, F96P
B9: anti-Sortilin antibody S-51 (antibody, V domains shown)
VH: QVQLVESGGGVVQPGRSLRLSCAASGFTFSSYGMHWVRQAPGKGLEWVAVISYDGSNKYYADSVKGRFTISRDNSKNTLYLQMNSLRAEDTAVYYCAKGLEYYDSSRLYYPYYYYMDVWGKGTTVTVSS
VL: EIVLTQSPATLSLSPGERATLSCRASQSVSSYLAWYQQKPGQAPRLLIYDASKRATGIPARFSGSGSGTDFTLTISSLEPEDFAVYYCQQRSNYPITFGGGTKVEIK
B10: anti-Sortilin antibody S-22 (antibody, V domains shown)
VH: QVQLVQSGAEVKKPGSSVKVSCKASGGTFSSYAISWVRQAPGQGLEWMGGIIPIFGTASYAQKFQGRVTITADESTSTAYMELSSLRSEDTAVYYCARQGRKTGYYYYYGMDVWGQGTTVTVSS
VL: DIQMTQSPSTLSASVGDRVTITCRASQSISSWLAWYQQKPGKAPKLLIYKASSLESGVPSRFSGSGSGTEFTLTISSLQPDDFATYYCQQADGHITFGGGTKVEIK
B11: anti-Sortilin antibody S-21 (antibody, V domains shown)
VH: B10 VH with G50S, S59N, Q99E, G100R, K102Y, T103D
VL: B4 VL with G50A, H91K, Y92A, V93S, G94L
B12: anti-Sortilin antibody S-29 (antibody, V domains shown)
VH: EVQLVESGGGLVKPGGSLRLSCAASGFTFSSYSMNWVRQAPGKGLEWVSSISSSSNYIYYADSVKGRFTISRDNAKNSLYLQMNSLRAEDTAVYYCARGGLDRWGSFDIWGQGTMVTVSS
VL: not shown
B13: anti-Sortilin antibody S-28 (antibody, V domains shown)
VH: B12 VH
VL: not shown
B14: anti-Sortilin antibody S-26 (antibody, V domains shown)
VH: EVQLVESGGGLVKPGGSLRLSCAASGFTFSSYSMNWVRQAPGKGLEWVSSISSSSSYIYYADSVKGRFTISRDNAKNSLYLQMNSLRAEDTAVYYCARDRLGRGYKWNWFDPWGQGTLVTVSS
VL: DIQMTQSPSSVSASVGDRVTITCRASQGIDSWLAWYQQKPGKAPKLLIYAASSLQSGVPSRFSGSGSGTDFTLTISSLQPEDFATYYCQQGNSLPPITFGGGTKVEIK
notes: IgG
B15: anti-Sortilin antibody S-15 (antibody, V domains shown)
VH: B1 VH
VL: B1 VL
notes: IgG
B16: anti-Sortilin antibody S-14 (antibody, V domains shown)
VH: B1 VH
VL: B4 VL
notes: IgG
B17: anti-Sortilin antibody S-18 (antibody, V domains shown)
VH: B6 VH
VL: B6 VL
notes: IgG
B18: anti-Sortilin antibody S-19 (antibody, V domains shown)
VH: B8 VH
VL: B4 VL with G50S, H91T, Y92D, V93G, G94K, F96P
notes: IgG
B19: anti-Sortilin antibody S-22 (antibody, V domains shown)
VH: B10 VH
VL: B10 VL
notes: IgG
B20: anti-Sortilin antibody S-21 (antibody, V domains shown)
VH: B10 VH with G50S, S59N, Q99E, G100R, K102Y, T103D
VL: B4 VL with G50A, H91K, Y92A, V93S, G94L
notes: IgG
B21: anti-Sortilin antibody S-28 (antibody, V domains shown)
VH: B12 VH
VL: not shown
notes: IgG
B22: anti-Sortilin antibody S-29 (antibody, V domains shown)
VH: B12 VH
VL: not shown
notes: IgG

Target: human Sortilin (human, UniProt Q99523 78-830)
Assay: cell-based or functional assay

Row | Percent reduction of Sortilin levels in U251 cells | Binder
1 | 87.8% | B1
2 | 70.3% | B2
3 | 42.5% | B3
4 | 75.4% | B4
5 | 73% | B5
6 | 85.7% | B6
7 | 96.2% | B7
8 | 93.4% | B8
9 | 75.9% | B9
10 | 92.7% | B10
11 | 78.7% | B11
12 | 90.8% | B12
13 | 85% | B13

Target: mouse Sortilin (mouse, UniProt Q6PHU5 74-825)
Assay: cell-based or functional assay

Row | Percent reduction of Sortilin levels in N2A cells | Binder
14 | 76.1% | B1
15 | 62.7% | B2
16 | 45.1% | B3
17 | 58.5% | B4
18 | 67.7% | B5
19 | 58% | B6
20 | 66% | B7
21 | 86.5% | B8
22 | 80.7% | B9
23 | 87.7% | B10
24 | 71.9% | B11
25 | 53.8% | B12
26 | 51.1% | B13

Target: T1, recombinant human Sortilin (human, UniProt Q99523 78-830)
T1 construct: also called hSort; SORT1
Assay: flow cytometry, 293 cells expressing recombinant human Sortilin, 10 ug/ml antibody
Description: (§1) Cells were harvested, plated at 10⁵/ml in a 96 well plate, washed, and incubated in 100 μl PBS containing 10 μg/ml Mab and 2% FBS for 1 hour in ice. Cells were then washed twice and incubated in 100 μl PBS+2% FBS containing 5 μg/ml PE-conjugated anti-human secondary antibody for 30 minutes in ice. Cells were washed twice in cold PBS and data was acquired on a BD FACS Canto. Data analysis and calculation of MFI values was performed with FlowJo (TreeStar) software version 10.0.7.

Row | MFI | Binder
27 | 9020 MFI | B14
28 | 8740 MFI | B15
29 | 8010 MFI | B16
30 | 9350 MFI | B17
31 | 11700 MFI | B18
32 | 8940 MFI | B19
33 | 9380 MFI | B20
34 | 8560 MFI | B21
35 | 9600 MFI | B22

Target: T2, recombinant mouse Sortilin (mouse, UniProt Q6PHU5 74-825)
T2 construct: also called mSort
Assay: flow cytometry, 293 cells expressing recombinant mouse Sortilin, 10 ug/ml antibody
Description: as §1

Row | MFI | Binder
36 | 20900 MFI | B14
37 | 17600 MFI | B15
38 | 16500 MFI | B16
39 | 21700 MFI | B17
40 | 28200 MFI | B18
41 | 23200 MFI | B19
42 | 22900 MFI | B20
43 | 21600 MFI | B21
44 | 21800 MFI | B22
